The values below come from PMC4012986, “The Dimerization Domain in DapE Enzymes Is required for Catalysis” (PLoS ONE, 2014).

A word on the Km: it is the substrate concentration at which the rate is half of its maximum. A word on the kcat: it is the maximal rate divided by the concentration of active sites.

Data set [1] deals with N[C@@H](CCC[C@H](NC(=O)CCC(=O)O)C(=O)O)C(=O)O. As to the kind of experiment: purified protein. Particulars: 50 mM phosphate pH 7.5, 25 °C, two equivalents Zn(II).
Substrate in data set [2]: N[C@@H](CCC[C@H](NC(=O)CCC(=O)O)C(=O)O)C(=O)O
In words: purified protein. Particulars: 50 mM phosphate pH 7.5, 25 °C, two equivalents Zn(II). This is another data set of the same source.

Data set [3] deals with the molecule itself. In words: dynamic light scattering; DynaPro-801, 21°C; 2.0 mg/ml in crystallization buffer (250 mM NaCl, 20 mM HEPES pH 8.0, 1 mM TCEP).

Consider “WT-VcDapE (Vibrio cholerae O1 biovar El Tor str. N16961)”, for which, in data set [1], the Km was 1.2 ± 0.2 mM and the kcat is 80 ± 10 s⁻¹.

B1: N-succinyl-L,L-diaminopimelic acid desuccinylase (DapE) from Haemophilus influenzae, wild type, full length (enzyme)
chain: MKEKVVSLAQDLIRRPSISPNDEGCQQIIAERLEKLGFQIEWMPFNDTLNLWAKHGTSEPVIAFAGHTDVVPTGDENQWSSPPFSAEIIDGMLYGRGAADMKGSLAAMIVAAEEYVKANPNHKGTIALLITSDEEATAKDGTIHVVETLMARDEKITYCMVGEPSSAKNLGDVVKNGRRGSITGNLYIQGIQGHVAYPHLAENPIHKAALFLQELTTYQWDKGNEFFPPTSLQIANIHAGTGSNNVIPAELYIQFNLRYCTEVTDEIIKQKVAEMLEKHNLKYRIEWNLSGKPFLTKPGKLLDSITSAIEETIGITPKAETGGGTSDGRFIALMGAEVVEFGPLNSTIHKVNECVSVEDLGKCGEIYHKMLVNLLDS
notes: also called HiDapE; WT-HiDapE; source: E. coli BL21(DE3) derivative with pMAGIC; purification of the wild type not described
Take B1: in data set [2], the Km worked out at 0.8 ± 0.1 mM and the kcat came to 114 ± 10 s⁻¹. For the same molecule, the binding result in data set [3] was “binds”.
